The target in the assay is native bovine chromogranin B (bCHGB) (bovine). In words: SEC; bCHGB in detergents, re-extracted from vesicles and fractionated by gel filtration; elution position compared with recombinant mCHGB.

Broadly, the stoichiometry N is the number of molecules, sites or subunits per partner or assembly. “native bovine chromogranin B (bCHGB) (natural protein)”: the stoichiometry N was found to be 2.

(Values after paper PMC10330821.)
